Experimental findings from article PMC7360120 are described below.

The experiment addresses HA-ELKS1αB.

Take “GST-Rab6B Q72L (from UniProt P61294 1-208) (natural protein)”: the fraction of synapses with mito-Rab6-tagged mitochondria in neurons co-expressing mito-Rab6BQL and HA-ELKS1αB, compared to inactive Rab6B (mito-Rab6BTN) or HA-ELKS1^∆955-971 was 2 fold.
